Source: PMC7827474, “DnaJ Proteins Regulate WUS Expression in Shoot Apical Meristem of Arabidopsis”

How the values were obtained:
MBP:WUS;MBP:At5g09540 = biological target: T1, MBP:WUS;MBP:At5g09540 (Arabidopsis thaliana;Arabidopsis …, UniProt Q9SB92;A2RVL3 1-292;1-280, |); test: EMSA; more efficient than WUS alone; EMSA: 10 mM HEPES pH 7.8, 20 mM KCl, 1 mM MgCl2, 21 mM DTT (so in the source), 7.5% glycerol, 0.5% Triton-100, 300 ng carrier DNA, 0.02% BSA, 10 uL, 22 C, 30 min; 8%; settings: protein: recombinant;recombinant; tags: MBP;MBP; label: Texas Red (3' end per Methods); blunt
T1 sequence 1: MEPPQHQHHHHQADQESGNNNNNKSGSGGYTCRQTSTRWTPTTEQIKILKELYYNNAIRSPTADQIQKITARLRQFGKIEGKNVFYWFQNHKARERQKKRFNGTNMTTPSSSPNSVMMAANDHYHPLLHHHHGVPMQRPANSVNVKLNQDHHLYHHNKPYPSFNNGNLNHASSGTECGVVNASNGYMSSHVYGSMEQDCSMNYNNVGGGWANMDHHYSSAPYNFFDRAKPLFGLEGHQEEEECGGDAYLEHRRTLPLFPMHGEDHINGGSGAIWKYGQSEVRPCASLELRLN
T1 sequence 2: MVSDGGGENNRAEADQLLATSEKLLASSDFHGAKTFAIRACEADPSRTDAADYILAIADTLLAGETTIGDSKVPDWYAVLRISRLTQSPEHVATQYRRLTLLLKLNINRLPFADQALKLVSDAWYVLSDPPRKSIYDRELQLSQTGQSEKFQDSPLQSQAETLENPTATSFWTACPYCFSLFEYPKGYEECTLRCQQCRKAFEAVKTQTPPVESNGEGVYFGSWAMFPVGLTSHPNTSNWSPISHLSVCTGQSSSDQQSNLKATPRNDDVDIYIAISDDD

MBP:WUS;MBP:SDJ3 = biological target: T2, MBP:WUS;MBP:SDJ3 (Arabidopsis thaliana;Arabidopsis …, UniProt Q9SB92;F4I0F5 1-292;1-797, |); test: as above; settings: protein: recombinant;recombinant; tags: MBP;MBP; label: Texas Red (3' end per Methods); blunt
T2 sequence 1: T1 sequence 1
T2 sequence 2: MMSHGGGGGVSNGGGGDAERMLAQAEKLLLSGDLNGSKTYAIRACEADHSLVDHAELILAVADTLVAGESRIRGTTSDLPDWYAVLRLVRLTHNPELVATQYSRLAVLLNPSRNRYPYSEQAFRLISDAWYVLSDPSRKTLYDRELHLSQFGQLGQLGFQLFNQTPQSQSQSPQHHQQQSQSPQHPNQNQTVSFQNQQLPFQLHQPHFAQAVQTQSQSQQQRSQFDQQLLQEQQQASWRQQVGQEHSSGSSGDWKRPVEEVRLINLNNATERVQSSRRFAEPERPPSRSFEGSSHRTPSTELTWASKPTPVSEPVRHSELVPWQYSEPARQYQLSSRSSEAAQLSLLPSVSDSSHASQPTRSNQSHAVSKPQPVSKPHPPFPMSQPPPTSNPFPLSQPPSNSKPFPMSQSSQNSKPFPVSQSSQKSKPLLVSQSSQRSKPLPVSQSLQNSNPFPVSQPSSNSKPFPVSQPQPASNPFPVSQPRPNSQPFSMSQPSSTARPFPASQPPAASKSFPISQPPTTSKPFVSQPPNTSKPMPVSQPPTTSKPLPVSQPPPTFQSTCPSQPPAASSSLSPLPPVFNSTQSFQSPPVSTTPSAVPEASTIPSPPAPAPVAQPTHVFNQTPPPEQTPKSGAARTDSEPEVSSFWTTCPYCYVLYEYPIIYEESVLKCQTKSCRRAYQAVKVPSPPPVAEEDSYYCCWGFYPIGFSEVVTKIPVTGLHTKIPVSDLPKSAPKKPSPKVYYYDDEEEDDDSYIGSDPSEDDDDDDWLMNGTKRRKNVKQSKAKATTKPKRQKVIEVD

MBP:WUS = biological target: T3, MBP:WUS (Arabidopsis thaliana, UniProt Q9SB92 1-292); test: EMSA; EMSA: 10 mM HEPES pH 7.8, 20 mM KCl, 1 mM MgCl2, 21 mM DTT (so in the source), 7.5% glycerol, 0.5% Triton-100, 300 ng carrier DNA, 0.02% BSA, 10 uL, 22 C, 30 min; 8%; settings: protein: recombinant; tags: MBP; chain copies: 2; label: Texas Red (3' end per Methods); blunt
T3 sequence: T1 sequence 1

Measured: binding result

B1: WUS promoter probe (pWUS) (dsDNA)
DNA 1: CTAGAATGAATAATAAAAAAAGTGAAAACCGTTTGATCATAA
DNA 2: TTATGATCAAACGGTTTTCACTTTTTTTATTATTCATTCTAG
binds: MBP:WUS;MBP:At5g09540 | MBP:WUS;MBP:SDJ3 | MBP:WUS
